This data set concerns the molecule itself. Put plainly: cross-linking.

One protein from publication doi:10.1101/2021.03.16.435520 (bioRxiv, 2021) can be followed below.

B1: IRE1-KR-R887A, unphosphorylated (domain or fragment)
chain: GSSPSLEQDDGDEETSVVIVGKISFCPKDVLGHGAEGTIVYRGMFDNRDVAVKRILPECFSFADREVQLLRESDEHPNVIRYFCTEKDRQFQYIAIELCAATLQEYVEQKDFAHLGLEPITLLQQTTSGLAHLHSLNIVHRDLKPHNILISMPNAHGKIKAMISDFGLCKKLAVGRHSFSRRSGVPGTEGWIAPEMLSEDCKENPTYTVDIFSAGCVFYYVISEGSHPFGKSLQRQANILLGACSLDCLHPEKHEDVIARELIEKMIAMDPQKRPSAKHVLKHPFFWSLEKQLQFFQDVSDRIEKESLDGPIVKQLERGGRAVVKMDWRENITVPLQTDLAKFRTYKGGSVRDLLRAMRNKKHHYRELPAEVRETLGSLPDDFVCYFTSRFPHLLAHTYRAMELCSHERLFQPYYFHEPPEPQPPVTPDAL
The term stoichiometry N denotes the number of molecules, sites or subunits per partner or assembly. Consider B1, for which the “stoichiometry N” value stood at 2.
